According to IntAct's records for PubMed 15192089:

B1: Tyrosine-protein phosphatase non-receptor type 2 (Homo sapiens), P17706-1 (parent)
chain: MPTTIEREFEELDTQRRWQPLYLEIRNESHDYPHRVAKFPENRNRNRYRDVSPYDHSRVKLQNAENDYINASLVDIEEAQRSYILTQGPLPNTCCHFWLMVWQQKTKAVVMLNRIVEKESVKCAQYWPTDDQEMLFKETGFSVKLLSEDVKSYYTVHLLQLENINSGETRTISHFHYTTWPDFGVPESPASFLNFLFKVRESGSLNPDHGPAVIHCSAGIGRSGTFSLVDTCLVLMEKGDDINIKQVLLNMRKYRMGLIQTPDQLRFSYMAIIEGAKCIKGDSSIQKRWKELSKEDLSPAFDHSPNKIMTEKYNGNRIGLEEEKLTGDRCTGLSSKMQDTMEENSESALRKRIREDRKATTAQKVQQMKQRLNENERKRKRWLYWQPILTKMGFMSVILVGAFVGWTLFFQQNAL
B2: Tyrosine-protein phosphatase non-receptor type 2 (Homo sapiens), P17706-2 (parent)
chain: MPTTIEREFEELDTQRRWQPLYLEIRNESHDYPHRVAKFPENRNRNRYRDVSPYDHSRVKLQNAENDYINASLVDIEEAQRSYILTQGPLPNTCCHFWLMVWQQKTKAVVMLNRIVEKESVKCAQYWPTDDQEMLFKETGFSVKLLSEDVKSYYTVHLLQLENINSGETRTISHFHYTTWPDFGVPESPASFLNFLFKVRESGSLNPDHGPAVIHCSAGIGRSGTFSLVDTCLVLMEKGDDINIKQVLLNMRKYRMGLIQTPDQLRFSYMAIIEGAKCIKGDSSIQKRWKELSKEDLSPAFDHSPNKIMTEKYNGNRIGLEEEKLTGDRCTGLSSKMQDTMEENSESALRKRIREDRKATTAQKVQQMKQRLNENERKRKRPRLTDT

Variants of: B1
Details: with insr_human INSR

| effect of a mutation on the interaction | Variant |
| --- | --- |
| causing an interaction | D182A |

Variants of: B2
Details: with insr_human INSR

| effect of a mutation on the interaction | Variant |
| --- | --- |
| causing an interaction | D182A |
